Data on one molecule can be found in publication PMC6746865, “Identification of telomerase RNAs in species of the Yarrowia clade provides insights into the co-evolution of telomerase, telomeric repeats and telomere-binding proteins”.

The data set concerns the target T1, Tay1p (YlTay1p) (Yarrowia lipolytica, UniProt Q6C9I6 1-406).
T1 sequence: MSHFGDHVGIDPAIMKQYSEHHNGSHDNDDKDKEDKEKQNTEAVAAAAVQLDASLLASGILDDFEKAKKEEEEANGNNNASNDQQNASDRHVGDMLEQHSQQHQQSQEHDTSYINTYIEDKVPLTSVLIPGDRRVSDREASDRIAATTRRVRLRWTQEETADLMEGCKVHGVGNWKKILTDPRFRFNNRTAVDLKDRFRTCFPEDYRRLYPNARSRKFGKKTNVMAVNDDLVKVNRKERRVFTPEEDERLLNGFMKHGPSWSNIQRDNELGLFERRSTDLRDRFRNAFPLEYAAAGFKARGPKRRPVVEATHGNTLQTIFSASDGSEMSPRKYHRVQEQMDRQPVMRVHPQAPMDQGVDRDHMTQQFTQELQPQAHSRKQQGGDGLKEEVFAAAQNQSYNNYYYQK
Kind of data set: EMSA; 20 mM HEPES-NaOH pH 7.3, 100 mM NaCl, 16 nM dsDNA probe (3-fold molar excess of unlabelled C strand used in annealing), 10 min at room temperature; 6% PAGE in cold 0.5x TBE. The conditions noted are these: protein: recombinant; label: 5'-32P on G strand; blunt. In general terms: In EMSA bound probe runs differently from free probe, usually more slowly.

B1: Y. lipolytica telomeric probe YlipTEL (2 repeats) (dsDNA)
DNA 1: TTAGTCAGGGTTAGTCAGGG
DNA 2: CCCTGACTAACCCTGACTAA
As for B1, the binding result was “binds”.
